Measurements published in article PMC8844825 (iScience, 2022).

T1: myc-WT CARD11-FLAGx2 (murine, UniProt Q8CIS0 1-1159)
T1 sequence (looked up): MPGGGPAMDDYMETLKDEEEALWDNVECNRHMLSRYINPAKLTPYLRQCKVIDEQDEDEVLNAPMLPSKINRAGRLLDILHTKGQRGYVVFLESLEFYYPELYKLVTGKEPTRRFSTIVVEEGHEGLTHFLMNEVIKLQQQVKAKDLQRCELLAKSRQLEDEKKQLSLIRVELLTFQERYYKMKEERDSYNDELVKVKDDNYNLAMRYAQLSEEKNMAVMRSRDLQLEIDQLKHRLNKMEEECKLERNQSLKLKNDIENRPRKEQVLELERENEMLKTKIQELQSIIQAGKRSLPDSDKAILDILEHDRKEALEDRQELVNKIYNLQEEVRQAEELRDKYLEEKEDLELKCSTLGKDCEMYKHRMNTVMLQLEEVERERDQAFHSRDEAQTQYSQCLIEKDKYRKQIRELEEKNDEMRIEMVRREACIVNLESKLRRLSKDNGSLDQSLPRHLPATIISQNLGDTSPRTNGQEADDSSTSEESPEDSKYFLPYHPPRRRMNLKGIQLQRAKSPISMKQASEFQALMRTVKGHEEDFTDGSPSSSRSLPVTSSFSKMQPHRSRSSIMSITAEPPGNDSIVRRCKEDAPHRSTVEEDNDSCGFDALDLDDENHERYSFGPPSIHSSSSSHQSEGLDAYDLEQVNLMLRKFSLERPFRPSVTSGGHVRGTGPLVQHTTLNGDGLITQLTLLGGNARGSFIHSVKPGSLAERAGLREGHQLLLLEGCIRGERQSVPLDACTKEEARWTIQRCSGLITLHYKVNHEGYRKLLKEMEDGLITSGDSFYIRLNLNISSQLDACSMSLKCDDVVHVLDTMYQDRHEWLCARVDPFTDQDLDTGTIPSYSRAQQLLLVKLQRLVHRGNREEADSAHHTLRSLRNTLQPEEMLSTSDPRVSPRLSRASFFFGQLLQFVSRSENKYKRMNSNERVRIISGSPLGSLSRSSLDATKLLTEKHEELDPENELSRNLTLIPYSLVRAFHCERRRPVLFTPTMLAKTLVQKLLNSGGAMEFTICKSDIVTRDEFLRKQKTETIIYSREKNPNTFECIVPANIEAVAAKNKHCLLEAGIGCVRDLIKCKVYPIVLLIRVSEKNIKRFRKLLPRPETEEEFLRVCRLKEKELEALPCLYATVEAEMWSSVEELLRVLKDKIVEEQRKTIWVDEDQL


Target: T1, myc-WT CARD11-FLAGx2
Assay: co-IP

Row | Binder | relative inducible binding (bound/input, normalised to WT)
1 | HOIP (endogenous, Jurkat T cells) (natural protein, human (endogenous in Jurkat), UniProt Q96EP0 1-1072, looked up) MPGEEEERAFLVAREELASALRRDSGQAFSLEQLRPLLASSLPLAARYLQLDAARLVRCNAHGEPRNYLNTLSTALNILEKYGRNLLSPQRPRYWRGVKFNNPVFRSTVDAVQGGRDVLRLYGYTEEQPDGLSFPEGQEEPDEHQVATVTLEVLLLRTELSLLLQNTHPRQQALEQLLEDKVEDDMLQLSEFDPLLREIAPGPLTTPSVPGSTPGPCFLCGSAPGTLHCPSCKQALCPACDHLFHGHPSRAHHLRQTLPGVLQGTHLSPSLPASAQPRPQSTSLLALGDSSLSSPNPASAHLPWHCAACAMLNEPWAVLCVACDRPRGCKGLGLGTEGPQGTGGLEPDLARGRWACQSCTFENEAAAVLCSICERPRLAQPPSLVVDSRDAGICLQPLQQGDALLASAQSQVWYCIHCTFCNSSPGWVCVMCNRTSSPIPAQHAPRPYASSLEKGPPKPGPPRRLSAPLPSSCGDPEKQRQDKMREEGLQLVSMIREGEAAGACPEEIFSALQYSGTEVPLQWLRSELPYVLEMVAELAGQQDPGLGAFSCQEARRAWLDRHGNLDEAVEECVRTRRRKVQELQSLGFGPEEGSLQALFQHGGDVSRALTELQRQRLEPFRQRLWDSGPEPTPSWDGPDKQSLVRRLLAVYALPSWGRAELALSLLQETPRNYELGDVVEAVRHSQDRAFLRRLLAQECAVCGWALPHNRMQALTSCECTICPDCFRQHFTIALKEKHITDMVCPACGRPDLTDDTQLLSYFSTLDIQLRESLEPDAYALFHKKLTEGVLMRDPKFLWCAQCSFGFIYEREQLEATCPQCHQTFCVRCKRQWEEQHRGRSCEDFQNWKRMNDPEYQAQGLAMYLQENGIDCPKCKFSYALARGGCMHFHCTQCRHQFCSGCYNAFYAKNKCPEPNCRVKKSLHGHHPRDCLFYLRDWTALRLQKLLQDNNVMFNTEPPAGARAVPGGGCRVIEQKEVPNGLRDEACGKETPAGYAGLCQAHYKEYLVSLINAHSLDPATLYEVEELETATERYLHVRPQPLAGEDPPAYQARLLQKLTEEVPLGQSIPRRRK | 1 relative to WT
2 | Bcl10 (endogenous, Jurkat T cells) (natural protein, human (endogenous in Jurkat), UniProt O95999 1-233, looked up) MEPTAPSLTEEDLTEVKKDALENLRVYLCEKIIAERHFDHLRAKKILSREDTEEISCRTSSRKRAGKLLDYLQENPKGLDTLVESIRREKTQNFLIQKITDEVLKLRNIKLEHLKGLKCSSCEPFPDGATNNLSRSNSDESNFSEKLRASTVMYHPEGESSTTPFFSTNSSLNLPVLEVGRTENTIFSSTTLPRPGDPGAPPLPPDLQLEEEGTCANSSEMFLPLRSRTVSRQ | 1 relative to WT
